Data from article PMC3617561 (Biochemistry, 2012).
Numbering of substitutions follows the chain as printed.

What was measured:
USP1(S313A) = target: T1, USP1(S313A) (human, UniProt O94782 1-785, G670A | G671A | S313A); assay: cell-based or functional assay
T1 sequence (looked up): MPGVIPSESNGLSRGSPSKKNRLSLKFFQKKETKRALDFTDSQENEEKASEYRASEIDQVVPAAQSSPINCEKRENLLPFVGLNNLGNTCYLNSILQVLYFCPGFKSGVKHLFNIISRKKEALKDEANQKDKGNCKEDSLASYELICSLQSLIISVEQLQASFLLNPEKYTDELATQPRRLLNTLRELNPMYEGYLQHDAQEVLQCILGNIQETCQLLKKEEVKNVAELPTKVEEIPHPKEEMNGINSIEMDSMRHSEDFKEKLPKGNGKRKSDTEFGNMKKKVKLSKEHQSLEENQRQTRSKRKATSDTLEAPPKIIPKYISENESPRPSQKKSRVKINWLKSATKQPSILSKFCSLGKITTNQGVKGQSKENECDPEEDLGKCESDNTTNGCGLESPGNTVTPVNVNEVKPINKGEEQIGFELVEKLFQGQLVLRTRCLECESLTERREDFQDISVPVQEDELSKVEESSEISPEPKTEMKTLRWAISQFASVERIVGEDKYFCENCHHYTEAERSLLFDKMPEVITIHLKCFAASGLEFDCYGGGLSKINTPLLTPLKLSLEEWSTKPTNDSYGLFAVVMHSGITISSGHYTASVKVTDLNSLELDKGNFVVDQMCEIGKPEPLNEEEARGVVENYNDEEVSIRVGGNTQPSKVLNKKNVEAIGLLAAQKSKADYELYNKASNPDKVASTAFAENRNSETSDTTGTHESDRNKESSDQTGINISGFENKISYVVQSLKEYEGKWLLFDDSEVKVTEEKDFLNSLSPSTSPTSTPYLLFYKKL

USP1(S313D) = target: T2, USP1(S313D) (human, UniProt O94782 1-785, G670A | G671A | S313D); assay: cell-based or functional assay
T2 sequence (looked up): T1 sequence (looked up) with A313D

- kcat/Km of USP1(S313A) purified together with His-tagged UAF1, on Ub-AMC (USP1(S313A)): 1100 M⁻¹ s⁻¹
- kcat/Km of the copurified USP1(S313D)/UAF1 complex on Ub-AMC (USP1(S313D)): 250000 M⁻¹ s⁻¹
B1: UAF1 (USP1-associated factor 1), six-His-tagged, N-terminally HA-tagged (natural protein)
chain: not shown
